Publication PMC6118392, “VapC proteins from Mycobacterium tuberculosis share ribonuclease sequence specificity but differ in regulation and toxicity” (PLoS ONE, 2018)

T1: VapB29;VapC29 (Mycobacterium tuberculosis …, UniProt P9WJ37;P9WF79 1-75;1-133, |)
T1 sequence 1: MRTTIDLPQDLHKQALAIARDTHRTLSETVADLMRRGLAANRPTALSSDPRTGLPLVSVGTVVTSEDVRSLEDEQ
T1 sequence 2: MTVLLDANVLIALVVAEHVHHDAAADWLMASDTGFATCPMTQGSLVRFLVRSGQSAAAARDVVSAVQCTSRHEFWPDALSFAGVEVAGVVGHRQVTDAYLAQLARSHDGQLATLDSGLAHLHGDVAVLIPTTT

B1: VapBC29 heterodimer (complex)
chain 1: T1 sequence 1
chain 2: T1 sequence 2
notes: VapB29 antitoxin of Mycobacterium tuberculosis, gene Rv0616a; as m7; VapC29 toxin of Mycobacterium tuberculosis, gene Rv0617; as m8; also called Rv0616a/Rv0617
B2: VapBC19 heterodimer (complex)
chain 1: MRTQVTLGKEELELLDRAAKASGASRSELIRRAIHRAYGTGSKQERLAALDHSRGSWRGRDFTGTEYVDAIRGDLNERLARLGLA
chain 2: MKLIDTTIAVDHLRGEPAAAVLLAELINNGEEIAASELVRFELLAGVRESELAALEAFFSAVVWTLVTEDIARIGGRLARRYRSSHRGIDDVDYLIAATAIVVDADLLTTNVRHFPMFPDLQPPY
notes: VapB19 antitoxin of Mycobacterium tuberculosis, gene Rv2547; as m3; VapC19 toxin of Mycobacterium tuberculosis, gene Rv2548; as m4; also called Rv2547/Rv2548
B3: Oligo 5 Bind 3 (Mut. 3) (dsDNA)
DNA 1: GGTGAGCGTCGGCGCGAAAAAAACGATGCAGCGATGTTAGGATGAGGCGG
DNA 2: CCGCCTCATCCTAACATCGCTGCATCGTTTTTTTCGCGCCGACGCTCACC
B4: VapBC39 heterodimer (complex)
chain 1: MRTTLQIDDDVLEDARSIARSEGKSVGAVISELARRSLRPVGIVEVDGFPVFDVPPDAPTVTSEDVVRALEDDV
chain 2: MTALLDVNVLIALGWPNHVHHAAAQRWFTQFSSNGWATTPITEAGYVRISSNRSVMQVSTTPAIAIAQLAAMTSLAGHTFWPDDVPLIVGSAGDRDAVSNHRRVTDCHLIALAARYGGRLVTFDAALADSASAGLVEVL
notes: VapB39 antitoxin of Mycobacterium tuberculosis, gene Rv2530a; as m9; VapC39 toxin of Mycobacterium tuberculosis, gene Rv2530c; as m10; also called Rv2530a/Rv2530c
B5: Oligo 5 Bind 5 (Mut. 5) (dsDNA)
DNA 1: GGTGAGCGTCGGCGCGCGCATCACGATGCAAAAAAATTAGGATGAGGCGG
DNA 2: CCGCCTCATCCTAATTTTTTTGCATCGTGATGCGCGCGCCGACGCTCACC
B6: VapBC1 heterodimer (complex)
chain 1: MATIQVRDLPEDVAETYRRRATAAGQSLQTYMRTKLIEGVRGRDKAEAIEILEQALASTASPGISRETIEASRRELRGG
chain 2: MDECVVDAAAVVDALAGKGASAIVLRGLLKESISNAPHLLDAEVGHALRRAVLSDEISEEQARAALDALPYLIDNRYPHSPRLIEYTWQLRHNVTFYDALYVALATALDVPLLTGDSRLAAAPGLPCEIKLVR
notes: VapB1 antitoxin of Mycobacterium tuberculosis, gene Rv0064a; as m1; VapC1 toxin of Mycobacterium tuberculosis, gene Rv0065; as m2; also called Rv0064a/Rv0065

What was measured:
SEC = biological target: the molecule itself; assay: SEC
VapB29;VapC29 = biological target: T1, VapB29;VapC29; assay: EMSA; conditions: protein: recombinant;recombinant; tags: ;C-terminal His; label: 3' DIG-ddUTP; blunt

| Binder | stoichiometry N (SEC) | binding result (VapB29;VapC29) |
| --- | --- | --- |
| B1 | 5 VapBC heterodimers per complex | – |
| B2 | 3.61 VapBC heterodimers per complex | – |
| B3 | – | no binding |
| B4 | 4.9 VapBC heterodimers per complex | – |
| B5 | – | no binding |
| B6 | 5.6 VapBC heterodimers per complex | – |
